Laboratory results as given in US20220242962A1 (APTEVO RESEARCH AND DEVELOPMENT, published 2022).
Residue numbers refer to the chain shown, from its start. Names and notes keep the numbering of the source. Blank lines part the entries; values can stand above or below the binder they belong to.

Key:
[1] = molecular target: T1, Human 4-1BB ECD-AFH (human); assay: SPR (T200), construct captured, monomeric ECD as analyte
T1 construct: entry includes the tags; also called FOB003; HUMAN CD137 ECD-AVI-FLAG-HIS
T1 sequence (chain, as listed by the source limits assumed): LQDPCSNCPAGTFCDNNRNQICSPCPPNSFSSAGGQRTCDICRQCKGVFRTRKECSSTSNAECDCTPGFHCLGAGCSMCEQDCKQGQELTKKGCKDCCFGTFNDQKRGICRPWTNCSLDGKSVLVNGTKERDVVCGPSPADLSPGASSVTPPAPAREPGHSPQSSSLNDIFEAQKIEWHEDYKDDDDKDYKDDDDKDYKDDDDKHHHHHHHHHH
Procedure: (§1) Mouse anti-human IgG (GE, BR-1008-39) at 25 μg/ml in 10 mM sodium acetate pH 5.0 was immobilized at a density of ˜10,000 response units (RU) onto each flow cell of a CM5 research-grade sensor chip (GE) by standard amine coupling chemistry. Each binding protein at approximately 100 nM in HBS-EP+ with 0.2% BSA buffer was captured in a flow cell with the immobilized anti-human IgG at a flow rate of 10 μL/min for 20 seconds, leaving one flow cell surface unmodified as the reference. Using a single-cycle kinetics mode, five different concentrations of ECD were sequentially injected through each flow cell at 30 μL/min for 300 seconds followed by a 600 second dissociation period. Regeneration was achieved by injection of 3 M MgCl₂ at a flow rate of 30 μL/min for 30 seconds followed by HBS-EP+ with 0.2% BSA buffer stabilization for 1 min.
(§2) Sensorgrams obtained from kinetic SPR measurements were analyzed by the double subtraction method. The signal from the reference flow cell was subtracted from the analyte binding response obtained from flow cells with immobilized or captured ligands. Buffer reference responses were then averaged from multiple injections. The averaged buffer reference responses were then subtracted from analyte binding responses, and the final double-referenced data were analyzed with Biacore T200 Evaluation software (2.0, GE), globally fitting data to derive kinetic parameters. All sensorgrams were fitted using a simple one-to-one binding model.

[2] = molecular target: T2, Human OX40 ECD-AFH (human); assay: as above
T2 construct: ECD'; entry includes the C-terminal tags; also called OXF003; Human OX40 ECD-avi-flag-his
T2 chain: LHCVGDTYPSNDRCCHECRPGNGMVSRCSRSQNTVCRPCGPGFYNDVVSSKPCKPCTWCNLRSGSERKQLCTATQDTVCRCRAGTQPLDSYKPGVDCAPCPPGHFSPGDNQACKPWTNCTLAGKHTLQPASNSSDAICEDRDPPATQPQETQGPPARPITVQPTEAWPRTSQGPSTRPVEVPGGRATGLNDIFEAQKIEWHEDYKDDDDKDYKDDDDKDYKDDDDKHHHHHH
Procedure: as §1, §2

[3] = molecular target: T3, Full-length Cyno OX40 (cynomolgus monkey, UniProt P43489 29-277 (human entry)); assay: flow cytometry on CHOK1SV cells transfected with cynomolgus OX40, goat anti-human Fc secondary antibody, MFI (Mean)
T3 construct: on CHO-K1SV cells; also called OXF004; cynomolgus OX40
T3 chain: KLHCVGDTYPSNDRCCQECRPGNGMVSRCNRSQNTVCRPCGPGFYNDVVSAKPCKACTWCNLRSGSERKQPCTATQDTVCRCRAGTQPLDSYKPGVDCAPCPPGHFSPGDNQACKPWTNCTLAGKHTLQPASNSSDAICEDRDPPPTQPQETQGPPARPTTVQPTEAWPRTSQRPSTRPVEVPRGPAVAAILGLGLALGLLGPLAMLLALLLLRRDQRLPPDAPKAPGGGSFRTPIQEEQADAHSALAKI
Procedure: Serial dilutions of ADAPTIR™ constructs were incubated with cells transfected with human or cynomolgus ECD and subsequently labelled with a fluorescently-conjugated goat-α-human Fc secondary antibody. […] (See Example 16.)

[4] = molecular target: T4, Fc gamma receptor RIIB/C (human, UniProt P31994 46-217); assay: SPR, Fc captured, receptor as analyte
T4 construct: soluble SPR analyte
T4 sequence (looked up): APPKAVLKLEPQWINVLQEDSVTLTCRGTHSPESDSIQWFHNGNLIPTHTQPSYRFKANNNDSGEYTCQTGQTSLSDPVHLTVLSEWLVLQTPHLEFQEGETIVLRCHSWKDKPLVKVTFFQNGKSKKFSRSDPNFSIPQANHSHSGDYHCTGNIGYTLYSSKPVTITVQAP
Procedure: (§3) Fc mutations to be potentially integrated into an ADAPTIR™ bispecific construct were analyzed for binding to the common Fc receptors (human and cyno) and C1Q, which is a component of the complement activation system. SPR experiments were conducted at 25° C. in HBS-EP+ buffer on a Biacore T200 system.
(§4) For these experiments, all four flow cells of a CM5 sensor chip were immobilized with goat F(ab′)2 anti-human Fc (Jackson ImmunoResearch) to a response level of ˜4000 RU. Fc variants and wild type Fc were diluted to 100 nM in HBS-EP+ and captured on the surface of the chip for 120 seconds at a flow rate of 10 μL/min. Fcγ receptors (human and cyno, all purchased from R&D Systems) and complement (C1Q, purchased from Quidel Corporation and Complement Technology, Inc) were diluted in HBS-EP+ and then flowed as analytes at 30 μL/min for 120 seconds followed by a 120 seconds dissociation. Regeneration was achieved by flowing 10 mM glycine pH 1.7 at 30 μL/min for 30 seconds followed by a 60 seconds stabilization. Flow cell 1 was always left as a blank (no captured protein) for purposes of background signal subtraction. Blank-subtracted sensorgrams for each captured Fc variant were inspected for the presence of binding to any of the Fcγ receptor proteins or complement. There are polymorphisms in the Human Fc receptors IIA and RIIIA, so both sequences were tested for binding.

[5] = molecular target: T5, Fc gamma receptor RIIA H167 (human, UniProt P12318 36-218); assay: SPR, Fc captured, receptor as analyte
T5 construct: soluble SPR analyte
T5 sequence (looked up): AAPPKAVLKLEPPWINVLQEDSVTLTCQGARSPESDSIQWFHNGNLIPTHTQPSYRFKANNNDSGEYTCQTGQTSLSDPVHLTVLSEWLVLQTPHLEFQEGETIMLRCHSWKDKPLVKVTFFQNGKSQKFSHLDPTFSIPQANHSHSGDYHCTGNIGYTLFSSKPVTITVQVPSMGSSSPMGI
Procedure: as §3, §4

[6] = molecular target: T6, Fc gamma receptor RIIA R167 (human, UniProt P12318 36-218); assay: SPR, Fc captured, receptor as analyte
T6 construct: soluble SPR analyte
T6 sequence (looked up): T5 sequence (looked up) with H132R
Procedure: as §3, §4

[7] = molecular target: T7, Fc gamma receptor RIIIB (human, UniProt O75015 17-200); assay: SPR, Fc captured, receptor as analyte
T7 construct: soluble SPR analyte
T7 sequence (O75015 17-200): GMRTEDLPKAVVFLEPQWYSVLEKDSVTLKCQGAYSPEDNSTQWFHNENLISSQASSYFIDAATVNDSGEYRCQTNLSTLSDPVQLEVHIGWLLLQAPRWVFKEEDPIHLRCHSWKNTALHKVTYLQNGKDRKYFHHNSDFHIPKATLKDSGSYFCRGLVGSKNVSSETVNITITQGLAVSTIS
Procedure: as §3, §4

Kd [1]: 14 nM
koff [1]: 0.0044 s⁻¹
kon [1]: 300000 M⁻¹ s⁻¹
Kd [2]: 0.4 nM
koff [2]: 0.00014 s⁻¹
kon [2]: 380000 M⁻¹ s⁻¹
EC50 (read off the curve) [3]: ~2 nM
B1: FXX01066 (bispecific antibody)
chain: EVQLVQSGAEVKKPGASVKVSCKASGYTFTSYWMNWVRQAPGQGLEWMGNIYPSGGSTNYAQKFQGRVTMTVDTSTSTVYMELSSLRSEDTAVYYCASFSDGYYAYAMDYWGQGTLVTVSSGGGGSGGGGSGGGGSGGGGSEIVMTQSPATLSLSPGERATLSCRASQSVSSYLNWYQQKPGQAPRLLIYYASRRHTGIPARFSGSGSGTDFTLTISSLQPEDFAVYYCQQGYNLPYTFGQGTKVEIKEPKSSDKTHTCPPCPAPPAAAPSVFLFPPKPKDTLMISRTPEVTCVVVDVSHEDPEVKFNWYVDGVEVHNAKTKPREEQYNSTYRVVSVLTVLHQDWLNGKEYKCAVSNKALPAPIEKTISKAKGQPREPQVYTLPPSRDELTKNQVSLTCLVKGFYPSDIAVEWESNGQPENNYKTTPPVLDSDGSFFLYSKLTVDKSRWQQGNVFSCSVMHEALHNHYTQKSLSLSPGGGGSPSSYVLTQPPSVSVAPGQTARITCGGNNIGSKSVNWFQQKPGQAPVLVVYDDSGRPSGIPERFSGSTSGNTATLTISRVEAGDEADYYCQVWDSSSDHVVFGGGTKLTVLGGGGSGGGGSGGGGSGGGGSQVQLVESGGGVVQPGRSLRLSCAASGFTLSYYGMHWVRQAPGKGLEWVAAISHDGSDKYYADSVKGRFTISRDNSKNTLYLQMNSLRAEDTAVYYCSNDQFDPWGQGTLVTVSSR
notes: ADAPTIR scFv-Fc-scFv, anti-4-1BB (VH-VL) N-terminal, anti-OX40 C-terminal, PAA (del) Fc; also called FX01066

binding result [4]: no binding
binding result [5]: no binding
binding result [6]: no binding
binding result [7]: no binding
B2: TSC 1005 (other)
chain: EPKSSDKTHTCPPCPAPPVAAPSVFLFPPKPKDTLMISRTPEVTCVVVDVSHEDPEVKFNWYVDGVEVHNAKTKPREEQYNSTYRVVSVLTVLHQDWLNGKEYKCAVSNKALPAPIEKTISKAKGQPREPQVYTLPPSRDELTKNQVSLTCLVKGFYPSDIAVEWESNGQPENNYKTTPPVLDSDGSFFLYSKLTVDKSRWQQGNVFSCSVMHEALHNHYTQKSLSLSPG
notes: IgG1 Fc with E233P, L234V, L235A, deletion of G236, G237A, K322A (EU); also called PVAdel TSC01005
